Biological target: HIV-1 Env gp120 of virus WITO, on infected cells (HIV-1)
Assay: cell-based or functional assay

Substance: PGT-121 (antibody)
- killing EC50; HIV-infected CEM-NKr-CCR5-LucR CD4 T cells; PBMC donor 4176; virus WITO: > 100 µg/mL
- killing EC50; HIV-infected CEM-NKr-CCR5-LucR CD4 T cells; PBMC donor 4288; virus WITO: > 100 µg/mL
